Experimental findings from patent US20110064751A1 are described below.

In test [1] the target is Extra Domain B of fibronectin (EDB) (UniProt P02751). The test can be described thus: BIACORE SPR, EDB immobilized on the chip, analyte at 1.56, 3.125 and 6.25 nM. On the technique in general: Surface plasmon resonance follows binding to a sensor surface in real time, without labels.
For test [2] the target is unchanged. Briefly: SPR (BIACORE), EDB immobilized on the chip, construct as analyte.

Extra Domain B of fibronectin (EDB), sequence (P02751 1266-1356 limits assumed): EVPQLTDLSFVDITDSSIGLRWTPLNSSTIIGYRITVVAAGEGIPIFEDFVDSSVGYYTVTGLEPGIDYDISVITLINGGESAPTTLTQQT
L19 diabody-IL2 fusion protein, 12 amino acid linker, sequence (VH): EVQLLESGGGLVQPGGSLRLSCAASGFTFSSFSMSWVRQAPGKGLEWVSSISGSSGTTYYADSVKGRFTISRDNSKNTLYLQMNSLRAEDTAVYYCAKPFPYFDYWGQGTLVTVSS
L19 diabody-IL2 fusion protein, 12 amino acid linker, sequence (chain): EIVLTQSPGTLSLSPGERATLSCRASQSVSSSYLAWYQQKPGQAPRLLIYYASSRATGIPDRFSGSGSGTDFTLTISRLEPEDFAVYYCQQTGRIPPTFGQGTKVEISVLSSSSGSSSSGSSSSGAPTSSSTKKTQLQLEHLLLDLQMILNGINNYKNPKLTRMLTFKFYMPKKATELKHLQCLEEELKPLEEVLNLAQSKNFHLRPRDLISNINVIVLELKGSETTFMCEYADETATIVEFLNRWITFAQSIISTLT

What is called Kd is the equilibrium constant for the complex coming apart. Higher therefore signals lower affinity. Broadly, the koff is the rate constant with which the complex falls apart. What is called kon is the second-order rate constant of association. Low readings indicate slow association, high ones fast association. As to “L19 diabody-IL2 fusion protein, 12 amino acid linker”, in test [1], the Kd is 0.362 nM, the koff is 0.000769 s⁻¹ and the kon was 2.13e+06 M⁻¹ s⁻¹. The substance further had a Kd in test [2] of 0.36 nM.
